Consider one molecule from patent publication US20100129369A1 (Eli Lilly, published 2010).

Test [1] has as its target T1, RON-ECD-Fc (human, UniProt Q04912 25-957).
T1 construct: extracellular domain; Bought reagent; not shown: Fc part of the bought fusion
T1 sequence (looked up): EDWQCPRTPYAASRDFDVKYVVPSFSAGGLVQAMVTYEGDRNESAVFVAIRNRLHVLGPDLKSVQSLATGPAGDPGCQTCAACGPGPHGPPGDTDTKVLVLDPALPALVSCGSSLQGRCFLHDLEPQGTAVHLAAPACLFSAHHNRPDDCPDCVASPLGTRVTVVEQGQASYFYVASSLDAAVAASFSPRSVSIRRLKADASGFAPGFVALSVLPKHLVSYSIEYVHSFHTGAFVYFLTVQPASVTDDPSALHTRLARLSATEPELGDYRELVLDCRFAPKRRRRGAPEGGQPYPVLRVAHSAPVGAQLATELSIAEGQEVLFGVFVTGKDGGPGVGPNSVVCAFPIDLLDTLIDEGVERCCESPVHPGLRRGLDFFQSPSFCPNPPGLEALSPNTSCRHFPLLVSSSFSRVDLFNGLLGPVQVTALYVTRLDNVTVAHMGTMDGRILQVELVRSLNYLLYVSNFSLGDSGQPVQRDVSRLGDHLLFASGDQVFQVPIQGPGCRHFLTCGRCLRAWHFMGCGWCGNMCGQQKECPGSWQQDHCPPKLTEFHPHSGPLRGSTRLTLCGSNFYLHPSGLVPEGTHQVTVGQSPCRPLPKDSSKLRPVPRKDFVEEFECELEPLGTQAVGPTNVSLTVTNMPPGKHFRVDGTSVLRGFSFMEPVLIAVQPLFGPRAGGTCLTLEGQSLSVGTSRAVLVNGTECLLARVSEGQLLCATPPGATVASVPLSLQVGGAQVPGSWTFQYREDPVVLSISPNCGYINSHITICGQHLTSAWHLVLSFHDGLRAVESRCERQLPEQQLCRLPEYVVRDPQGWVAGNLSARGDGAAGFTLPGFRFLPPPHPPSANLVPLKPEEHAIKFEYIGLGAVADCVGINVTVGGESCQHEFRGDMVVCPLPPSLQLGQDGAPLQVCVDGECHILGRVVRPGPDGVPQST
The test can be described thus: ELISA, coated ECD-Fc, antibody 2.143 ng/mL. As for the experimental part: (§1) Wells of 96-well EIA/RIA high binding plates (Costar, #2592) are coated with 100 μL of 1 μg/mL human c-Met extracellular domain (ECD)-Fc-Flis fusion (SEQ ID NO:72), RON-ECD-Fc (R&D Systems, #1947-MS), or PlexinA2-ECD-Fc (Abnova, Taipei, Taiwan #H00005362-P01) in coating buffer (BioFX Labs, # COAT-1000-01) overnight at 4° C. […] After the plates are washed, 100 μL/well of substrate solution (BioFx, #TMBW-1000-01) are added and the plates are incubated for 10 min. at room temperature. 100 μL/well of stop solution (BioFx, # LSTP-1000-01) are added to stop the reaction. The colorimetric signals are developed and read at 450 nm using a SpectraMax 190 plate reader (Molecular Devices, Sunnyvale, Calif.). c-Met antibody binding to c-Met, RON and PlexinA2 ECDs is proportional to color signal production.
(In an ELISA, binding on a coated surface is turned into a signal by an enzyme label.)

Test [2] concerns the target T2, PlexinA2-ECD-Fc (human, UniProt O75051 35-1237).
T2 construct: extracellular domain; Bought reagent
T2 sequence (looked up): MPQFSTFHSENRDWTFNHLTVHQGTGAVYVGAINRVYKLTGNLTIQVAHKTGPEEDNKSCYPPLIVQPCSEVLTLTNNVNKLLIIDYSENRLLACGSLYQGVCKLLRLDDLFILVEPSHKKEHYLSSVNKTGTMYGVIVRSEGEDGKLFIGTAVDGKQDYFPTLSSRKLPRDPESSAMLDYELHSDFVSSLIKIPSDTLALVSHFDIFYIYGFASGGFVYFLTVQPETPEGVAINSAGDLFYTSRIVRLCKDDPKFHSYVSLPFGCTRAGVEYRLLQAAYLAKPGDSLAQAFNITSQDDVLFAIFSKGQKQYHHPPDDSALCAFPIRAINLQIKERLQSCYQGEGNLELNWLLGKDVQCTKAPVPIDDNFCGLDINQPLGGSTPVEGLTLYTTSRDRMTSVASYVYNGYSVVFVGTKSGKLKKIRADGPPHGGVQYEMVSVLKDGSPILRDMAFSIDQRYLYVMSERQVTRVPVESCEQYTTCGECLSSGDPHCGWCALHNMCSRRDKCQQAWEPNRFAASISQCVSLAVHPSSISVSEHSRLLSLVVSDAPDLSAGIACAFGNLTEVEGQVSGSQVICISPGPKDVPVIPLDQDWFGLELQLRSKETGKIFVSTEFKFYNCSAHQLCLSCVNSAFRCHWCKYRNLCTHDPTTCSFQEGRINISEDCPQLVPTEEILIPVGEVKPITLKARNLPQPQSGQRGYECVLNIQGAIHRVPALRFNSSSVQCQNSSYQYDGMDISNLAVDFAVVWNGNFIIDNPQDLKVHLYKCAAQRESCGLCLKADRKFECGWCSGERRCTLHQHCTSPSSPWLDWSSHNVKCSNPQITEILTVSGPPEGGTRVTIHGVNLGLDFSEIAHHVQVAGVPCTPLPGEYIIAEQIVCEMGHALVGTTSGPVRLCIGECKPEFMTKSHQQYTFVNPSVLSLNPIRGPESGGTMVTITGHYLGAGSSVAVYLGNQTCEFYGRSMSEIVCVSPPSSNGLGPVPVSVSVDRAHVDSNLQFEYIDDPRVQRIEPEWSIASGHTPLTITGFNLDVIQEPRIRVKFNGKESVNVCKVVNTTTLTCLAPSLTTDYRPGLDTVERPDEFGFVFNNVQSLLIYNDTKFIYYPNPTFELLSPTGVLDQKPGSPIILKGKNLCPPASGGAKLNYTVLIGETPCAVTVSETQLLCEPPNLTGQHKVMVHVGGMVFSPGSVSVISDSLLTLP
In words: ELISA, coated ECD-Fc, antibody 2.143 ng/mL. As to the method: as §1

The target of test [3] is T3, Human c-Met-Flis-Fc ECD (human).
T3 construct: also called human c-Met extracellular domain (ECD)-Fc-Flis fusion; Human cMet-ECD-Fc-Flis
In words: ELISA, coated ECD-Fc, antibody 2.143 ng/mL. As for the experimental part:
as §1

Test [4] addresses T1, RON-ECD-Fc. The test can be described thus: ELISA, coated ECD-Fc, antibody 12.860 ng/mL. As to the method:
as §1

The target of test [5] is T2, PlexinA2-ECD-Fc. The test can be described thus: ELISA, coated ECD-Fc, antibody 12.860 ng/mL. As to the method: as §1
Test [6] addresses T3, Human c-Met-Flis-Fc ECD. In words: ELISA, coated ECD-Fc, antibody 12.860 ng/mL. As for the experimental part: as §1
In test [7] the target is T3, Human c-Met-Flis-Fc ECD. In words: ELISA, coated ECD-Fc, antibody 16666.667 ng/mL. As for the experimental part:
as §1

T3 sequence (chain, as listed by the source limits assumed): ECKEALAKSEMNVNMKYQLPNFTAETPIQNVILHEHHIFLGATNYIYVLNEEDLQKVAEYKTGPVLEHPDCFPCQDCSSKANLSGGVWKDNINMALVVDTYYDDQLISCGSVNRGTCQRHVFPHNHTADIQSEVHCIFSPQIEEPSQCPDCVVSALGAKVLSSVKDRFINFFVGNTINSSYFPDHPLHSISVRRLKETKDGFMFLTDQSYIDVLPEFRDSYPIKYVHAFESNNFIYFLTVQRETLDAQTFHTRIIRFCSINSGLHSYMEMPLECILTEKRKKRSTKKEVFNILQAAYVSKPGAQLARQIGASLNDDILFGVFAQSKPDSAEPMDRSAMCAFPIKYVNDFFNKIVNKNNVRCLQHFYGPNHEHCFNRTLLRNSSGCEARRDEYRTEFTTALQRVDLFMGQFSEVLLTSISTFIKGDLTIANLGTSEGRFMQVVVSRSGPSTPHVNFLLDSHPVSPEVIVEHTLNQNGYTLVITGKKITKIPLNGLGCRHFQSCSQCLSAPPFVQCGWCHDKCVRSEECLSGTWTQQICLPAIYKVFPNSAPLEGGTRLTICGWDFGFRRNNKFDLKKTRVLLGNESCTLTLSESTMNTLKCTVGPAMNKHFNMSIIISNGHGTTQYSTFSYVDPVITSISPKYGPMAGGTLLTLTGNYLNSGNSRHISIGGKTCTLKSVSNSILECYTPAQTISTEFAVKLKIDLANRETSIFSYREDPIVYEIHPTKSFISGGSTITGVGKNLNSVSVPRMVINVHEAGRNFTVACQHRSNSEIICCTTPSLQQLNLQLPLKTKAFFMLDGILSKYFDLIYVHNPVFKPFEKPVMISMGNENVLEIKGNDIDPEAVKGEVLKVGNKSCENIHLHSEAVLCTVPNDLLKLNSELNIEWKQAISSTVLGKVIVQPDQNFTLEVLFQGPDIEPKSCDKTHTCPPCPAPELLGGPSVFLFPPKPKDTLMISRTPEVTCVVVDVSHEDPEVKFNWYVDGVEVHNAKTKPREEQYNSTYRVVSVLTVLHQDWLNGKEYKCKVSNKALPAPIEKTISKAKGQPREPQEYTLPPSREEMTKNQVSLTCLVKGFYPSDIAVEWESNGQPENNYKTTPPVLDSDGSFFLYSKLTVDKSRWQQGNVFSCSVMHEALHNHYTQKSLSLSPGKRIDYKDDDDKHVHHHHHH

B1: C8-6 (antibody, human IgG2, kappa, V domains shown)
VH: QVQLVQSGAEVKKPGASVKVSCKASGYTFTDYYMHWVRQAPGQGLEWMGRVNPNRGGTTYNQKFEGRVTMTTDTSTSTAYMELRSLRSDDTAVYYCARTNWLDYWGQGTTVTVSS
VL: DIQMTQSPSSLSASVGDRVTITCSVSSSVSSIYLHWYQQKPGKAPKLLIYSTSNLASGVPSRFSGSGSGTDFTLTISSLQPEDFATYYCIQYSGYPLTFGGGTKVEIKR
notes: Called IgG4, kappa; also called Mab C8-6
On to B1, for which the “Average A450 nm” value worked out at 0.098 A450 nm with RON-ECD-Fc [1]; 0.106 A450 nm with PlexinA2-ECD-Fc [2]; 2.42 A450 nm with Human c-Met-Flis-Fc ECD [3]; 0.087 A450 nm with RON-ECD-Fc [4]; 0.085 A450 nm in the test with PlexinA2-ECD-Fc [5]; 4 A450 nm in the test with Human c-Met-Flis-Fc ECD [6]. Moreover, the “Average A450 nm” value with Human c-Met-Flis-Fc ECD [7] was determined as 4 A450 nm.
